Assay results: patent US20220257796A1

Biological target: CD46 (human) (UniProt P15529)
Assay: Kd of fiber knob to CD46, Table 1 (method not given)

Chain of UniProt P15529 (P15529 35-343 limits assumed): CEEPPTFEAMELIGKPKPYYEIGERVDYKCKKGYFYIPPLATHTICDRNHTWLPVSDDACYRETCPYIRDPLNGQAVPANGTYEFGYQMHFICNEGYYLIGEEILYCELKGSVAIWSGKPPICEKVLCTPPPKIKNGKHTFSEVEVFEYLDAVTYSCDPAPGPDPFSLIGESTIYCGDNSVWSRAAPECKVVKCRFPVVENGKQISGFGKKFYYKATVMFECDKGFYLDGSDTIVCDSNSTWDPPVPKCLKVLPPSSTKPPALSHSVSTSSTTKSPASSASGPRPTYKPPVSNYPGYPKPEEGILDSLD

Point of comparison: “Ad35 fiber knob mutant B5: Ile256Leu (from UniProt P46977)”, Kd 11 nM. Against it:
- Ad11 (fiber knob) (from UniProt P33681) — within 1.5-fold, 11.2 nM
- Ad35 fiber knob mutant A8: Ile192Val Ile256Val (from UniProt Q92854) — within 1.5-fold, 13.7 nM
- Ad35 fiber knob mutant B4: Thr245Ala (from UniProt Q8NHJ6) — within 1.5-fold, 7.64 nM
